Measured values: patent US20140212436A1
Like-named read-outs stand apart in the source and are kept apart here.

Legend:
FcγRIIaR (human) = FcγRIIaR (human) (UniProt P12318); test: Biacore
human FcγRI (human) [1] = target: human FcγRI (human) (UniProt P12314); test: Biacore
FcγRIIIaF (human) = FcγRIIIaF (human) (UniProt P08637); test: Biacore
[2] = target: recombinant human FcγRIIb protein (human) (UniProt P31994); test: Biacore
[3] = target: human V158 FcγRIIIa (human) (UniProt P08637); test: Biacore
[4] = target: IgE (from a human IgE ELISA kit, Bethyl Laboratories) (human) (UniProt P01854); test: sandwich ELISA, antibody coated as capture; the concentration is that of IgE
[5] = target: human H131 FcγRIIa (human) (UniProt P12318); test: Biacore
[6] = target: human H131 FcγRIIa (human) (UniProt P12318); test: Biacore; remark: listed apart in the source
human FcγRI (human) [7] = target: human FcγRI (human) (UniProt P12314); test: Biacore; remark: listed apart in the source
[8] = target: recombinant human FcγRIIb protein (human) (UniProt P31994); test: Biacore; remark: listed apart in the source
[9] = target: human V158 FcγRIIIa (human) (UniProt P08637); test: Biacore; remark: listed apart in the source
[10] = target: XENP12704, anti-IgE antibody containing human C3d fused to the C-terminus of Ckappa (human) (UniProt P01834); test: ELISA, CR2-Fc coated; the concentration is that of XENP12704
[11] = target: recombinant human FcγRIIb protein (human) (UniProt P31994); test: Biacore SPR, antibody captured on protein A/G, FcγRIIb injected

human V158 FcγRIIIa (human), sequence (P08637 other isoform, or with tags, fused parts or gaps limits assumed): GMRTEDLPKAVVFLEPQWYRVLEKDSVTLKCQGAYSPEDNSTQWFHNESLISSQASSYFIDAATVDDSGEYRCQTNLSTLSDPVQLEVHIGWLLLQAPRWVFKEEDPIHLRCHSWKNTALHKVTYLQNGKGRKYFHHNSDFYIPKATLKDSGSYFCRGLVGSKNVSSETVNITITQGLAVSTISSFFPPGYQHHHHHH
FcγRIIaR (human), sequence (P12318 34-217 H167R limits assumed): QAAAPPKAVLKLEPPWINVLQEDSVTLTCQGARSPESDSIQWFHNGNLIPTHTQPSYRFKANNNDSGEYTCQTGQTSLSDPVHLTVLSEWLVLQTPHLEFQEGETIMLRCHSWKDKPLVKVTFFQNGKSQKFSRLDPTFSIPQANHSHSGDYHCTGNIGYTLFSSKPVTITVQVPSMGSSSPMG
recombinant human FcγRIIb protein (human), sequence (P31994 46-217 limits assumed): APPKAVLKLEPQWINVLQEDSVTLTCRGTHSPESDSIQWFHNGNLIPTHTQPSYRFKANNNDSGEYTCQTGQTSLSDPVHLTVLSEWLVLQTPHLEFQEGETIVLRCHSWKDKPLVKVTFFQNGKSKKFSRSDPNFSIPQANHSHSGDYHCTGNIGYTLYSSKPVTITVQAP
human FcγRI (human), sequence (P12314 16-288 limits assumed): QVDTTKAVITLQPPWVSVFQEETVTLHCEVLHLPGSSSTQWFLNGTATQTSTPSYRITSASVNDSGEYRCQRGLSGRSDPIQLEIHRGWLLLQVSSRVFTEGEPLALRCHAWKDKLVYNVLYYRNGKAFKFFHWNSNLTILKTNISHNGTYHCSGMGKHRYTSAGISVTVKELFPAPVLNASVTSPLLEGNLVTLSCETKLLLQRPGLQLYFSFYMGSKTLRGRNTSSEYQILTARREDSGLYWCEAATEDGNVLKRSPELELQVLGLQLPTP
human H131 FcγRIIa (human), sequence (P12318 other isoform, or with tags, fused parts or gaps limits assumed): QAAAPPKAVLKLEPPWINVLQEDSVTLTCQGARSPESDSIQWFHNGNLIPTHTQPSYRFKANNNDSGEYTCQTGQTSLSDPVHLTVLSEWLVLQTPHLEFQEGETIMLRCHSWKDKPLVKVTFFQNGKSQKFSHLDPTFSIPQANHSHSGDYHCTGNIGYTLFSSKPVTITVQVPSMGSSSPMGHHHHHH
FcγRIIIaF (human), sequence (P08637 17-208 limits assumed): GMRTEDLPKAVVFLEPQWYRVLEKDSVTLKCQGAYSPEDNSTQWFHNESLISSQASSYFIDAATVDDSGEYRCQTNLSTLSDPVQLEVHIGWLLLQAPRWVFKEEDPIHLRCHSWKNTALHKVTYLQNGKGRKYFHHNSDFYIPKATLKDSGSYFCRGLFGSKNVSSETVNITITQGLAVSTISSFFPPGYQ
XENP12561 (hSCR1-2 Fc fusion), sequence (P20023 21-148 limits assumed): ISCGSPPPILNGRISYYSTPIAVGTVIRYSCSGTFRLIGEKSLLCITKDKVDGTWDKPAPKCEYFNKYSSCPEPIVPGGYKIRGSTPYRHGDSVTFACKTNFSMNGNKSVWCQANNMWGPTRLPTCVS
IgE (from a human IgE ELISA kit, Bethyl Laboratories) (human), sequence (P01854 other isoform, or with tags, fused parts or gaps): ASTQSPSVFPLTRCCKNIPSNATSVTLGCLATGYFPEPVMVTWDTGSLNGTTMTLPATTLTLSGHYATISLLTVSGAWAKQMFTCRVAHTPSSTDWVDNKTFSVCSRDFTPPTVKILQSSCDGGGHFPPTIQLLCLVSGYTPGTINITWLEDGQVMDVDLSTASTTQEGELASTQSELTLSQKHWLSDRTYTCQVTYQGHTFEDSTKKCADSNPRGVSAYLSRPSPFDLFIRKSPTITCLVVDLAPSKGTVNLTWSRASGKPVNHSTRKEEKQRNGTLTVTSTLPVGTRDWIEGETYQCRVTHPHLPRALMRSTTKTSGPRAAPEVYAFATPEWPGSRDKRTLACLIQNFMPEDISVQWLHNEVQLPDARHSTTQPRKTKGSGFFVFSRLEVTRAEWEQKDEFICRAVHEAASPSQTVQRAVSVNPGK
XENP12562 (hSCR1-4 Fc fusion), sequence (P20023 21-273 limits assumed): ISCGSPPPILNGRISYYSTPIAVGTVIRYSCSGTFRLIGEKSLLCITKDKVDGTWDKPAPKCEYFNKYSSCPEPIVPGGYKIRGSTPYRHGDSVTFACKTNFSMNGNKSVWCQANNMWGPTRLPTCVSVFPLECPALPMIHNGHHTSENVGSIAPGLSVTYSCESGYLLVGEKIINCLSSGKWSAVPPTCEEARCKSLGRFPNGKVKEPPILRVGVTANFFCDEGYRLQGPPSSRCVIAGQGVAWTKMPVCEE

Kd (FcγRIIaR (human))	Kd (human FcγRI (human) [1])	Kd (FcγRIIIaF (human))	Kd [2]	Kd [3]	Fold (FcγRIIaR (human))	Kd [5]	Fold (human FcγRI (human) [1])	Fold [2]	Fold [3]	Fold [6]	Kd [6]	Fold (human FcγRI (human) [7])	Kd (human FcγRI (human) [7])	Fold [8]	Kd [8]	Kd [9]	Substance	also measured
166 nM	0.452 nM	5110 nM	541 nM	58400 nM	–	–	–	–	–	–	–	–	–	–	–	–	L328F (antibody)	–
230 nM	0.0934 nM	214 nM	408 nM	23.5 nM	3.73	590 nM	3.53	3.6	8.14	–	–	–	–	–	–	–	S239D (antibody)	Fold (FcγRIIIaF (human)): 6.32

More lines, now with the values behind:

Substance	Kd (FcγRIIaR (human))	Kd (human FcγRI (human) [1])	Kd (FcγRIIIaF (human))	Kd [2]	Kd [3]	Fold (FcγRIIaR (human))	Kd [5]	Fold (human FcγRI (human) [1])	Fold [2]	Fold [3]	Fold [6]	Kd [6]	Fold (human FcγRI (human) [7])	Kd (human FcγRI (human) [7])	Fold [8]	Kd [8]	Kd [9]	also measured
MaE11_IgG1_G236R/L328R (antibody)	–	–	–	–	–	–	–	–	–	–	–	–	–	–	–	–	–	EC50 (read off the curve) [4]: 0.05 µg/mL
S267E (antibody)	29.1 nM	0.117 nM	–	71.9 nM	503 nM	29.5	859 nM	2.81	20.4	0.381	0.89	960 nM	1.1	0.26 nM	30	60 nM	690 nM	Fold [9]: 0.29; Fold [5]: 0.753
XENP12561 (hSCR1-2 Fc fusion) (from UniProt P20023 21-148)	–	–	–	–	–	–	–	–	–	–	–	–	–	–	–	–	–	EC50 (read off the curve) [10]: 0.02 µg/mL
XENP12562 (hSCR1-4 Fc fusion) (from UniProt P20023 21-273)	–	–	–	–	–	–	–	–	–	–	–	–	–	–	–	–	–	EC50 (read off the curve) [10]: 0.003 µg/mL
anti-CD19 antibody HuAM4G7, IgG1 Fc variant S239D/I332E	68.6 nM	0.0374 nM	28.2 nM	101 nM	–	–	163 nM	–	–	–	–	220 nM	–	0.14 nM	–	88 nM	6.8 nM	–
anti-CD19 antibody HuAM4G7, IgG1 Fc variant S239D/S267E	7.16 nM	0.0142 nM	516 nM	13.3 nM	51.2 nM	120	510 nM	23.2	111	3.74	1.2	700 nM	1.6	0.17 nM	150	12 nM	62 nM	Fold [9]: 3; Fold [5]: 1.27; Fold (FcγRIIIaF (human)): 2.62
anti-CD19 antibody HuAM4G7, IgG1 Fc variant S267E/L328F	3.12 nM	0.22 nM	–	6.06 nM	5040 nM	275	923 nM	1.5	242	0.038	0.97	880 nM	1.2	0.23 nM	429	4.2 nM	–	Fold [5]: 0.7
anti-CD19 antibody HuAM4G7, WT (native) IgG1 Fc	859 nM	0.329 nM	–	1470 nM	191 nM	1	646 nM	–	–	–	1	850 nM	1	0.28 nM	1	–	200 nM	Fold [9]: 1; Kd [11]: 1800 nM
anti-CD19 antibody HuAM4G7, WT (native) IgG1 Fc (antibody; other documents disagree on this pair)	–	–	1350 nM	–	–	–	–	–	–	–	–	–	–	–	–	–	–	Fold (FcγRIIIaF (human)): 1
